Source: PMC7921410, “Structure of mammalian Mediator complex reveals Tail module architecture and interaction with a conserved core” (Nature Communications, 2021)

T1: MED23 (mouse (Mus musculus; endogenous in CH12), UniProt Q80YQ2 1-1367)
T1 construct: MED23, Mus musculus, endogenous lower Tail subunit of Mediator; Model building started from the X-ray structure of human MED23 (PDB 6H02); source: endogenous, CH12 mouse B lymphoma nuclear extract; immunopurified as part of Mediator (FLAG M2 agarose, FLAG peptide elution)
T1 sequence (looked up): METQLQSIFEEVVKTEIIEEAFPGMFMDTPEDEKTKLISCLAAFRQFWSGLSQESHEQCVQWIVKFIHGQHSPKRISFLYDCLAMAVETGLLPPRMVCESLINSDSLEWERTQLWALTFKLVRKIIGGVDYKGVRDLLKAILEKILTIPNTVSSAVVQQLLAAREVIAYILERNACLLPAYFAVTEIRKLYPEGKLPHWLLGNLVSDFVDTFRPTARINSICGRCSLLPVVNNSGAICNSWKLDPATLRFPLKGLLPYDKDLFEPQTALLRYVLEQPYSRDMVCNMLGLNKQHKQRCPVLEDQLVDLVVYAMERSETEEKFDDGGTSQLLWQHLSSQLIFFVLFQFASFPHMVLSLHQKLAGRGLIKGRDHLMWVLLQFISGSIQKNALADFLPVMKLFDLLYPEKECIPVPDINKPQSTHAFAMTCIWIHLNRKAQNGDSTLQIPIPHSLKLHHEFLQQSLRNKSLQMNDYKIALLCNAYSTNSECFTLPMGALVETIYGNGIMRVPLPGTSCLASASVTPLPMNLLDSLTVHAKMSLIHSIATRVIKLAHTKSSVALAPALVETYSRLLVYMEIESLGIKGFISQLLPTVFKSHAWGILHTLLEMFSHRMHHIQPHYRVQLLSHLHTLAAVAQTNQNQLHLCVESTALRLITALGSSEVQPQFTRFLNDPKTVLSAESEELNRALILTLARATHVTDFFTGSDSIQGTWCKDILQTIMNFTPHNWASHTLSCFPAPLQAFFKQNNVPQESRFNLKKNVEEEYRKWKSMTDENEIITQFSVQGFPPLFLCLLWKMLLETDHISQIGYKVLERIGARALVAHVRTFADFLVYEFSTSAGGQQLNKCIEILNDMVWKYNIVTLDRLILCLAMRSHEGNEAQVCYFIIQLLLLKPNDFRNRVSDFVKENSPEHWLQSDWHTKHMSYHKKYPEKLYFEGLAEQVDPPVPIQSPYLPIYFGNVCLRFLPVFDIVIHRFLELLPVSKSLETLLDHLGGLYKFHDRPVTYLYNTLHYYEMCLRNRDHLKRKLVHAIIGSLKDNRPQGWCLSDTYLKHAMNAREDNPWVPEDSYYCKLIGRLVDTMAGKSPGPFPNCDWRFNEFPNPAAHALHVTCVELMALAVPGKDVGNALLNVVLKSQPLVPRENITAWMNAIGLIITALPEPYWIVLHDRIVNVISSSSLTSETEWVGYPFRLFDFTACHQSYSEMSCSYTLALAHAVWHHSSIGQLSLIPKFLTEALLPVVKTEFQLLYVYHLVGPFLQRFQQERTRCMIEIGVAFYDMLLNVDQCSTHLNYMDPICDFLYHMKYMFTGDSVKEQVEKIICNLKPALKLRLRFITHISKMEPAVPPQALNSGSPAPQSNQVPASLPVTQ

T2: MED24 (mouse (Mus musculus; endogenous in CH12), UniProt Q99K74 1-987)
T2 construct: MED24, Mus musculus, endogenous lower Tail subunit of Mediator; source: endogenous, CH12 mouse B lymphoma nuclear extract; immunopurified as part of Mediator (FLAG M2 agarose, FLAG peptide elution)
T2 sequence (looked up): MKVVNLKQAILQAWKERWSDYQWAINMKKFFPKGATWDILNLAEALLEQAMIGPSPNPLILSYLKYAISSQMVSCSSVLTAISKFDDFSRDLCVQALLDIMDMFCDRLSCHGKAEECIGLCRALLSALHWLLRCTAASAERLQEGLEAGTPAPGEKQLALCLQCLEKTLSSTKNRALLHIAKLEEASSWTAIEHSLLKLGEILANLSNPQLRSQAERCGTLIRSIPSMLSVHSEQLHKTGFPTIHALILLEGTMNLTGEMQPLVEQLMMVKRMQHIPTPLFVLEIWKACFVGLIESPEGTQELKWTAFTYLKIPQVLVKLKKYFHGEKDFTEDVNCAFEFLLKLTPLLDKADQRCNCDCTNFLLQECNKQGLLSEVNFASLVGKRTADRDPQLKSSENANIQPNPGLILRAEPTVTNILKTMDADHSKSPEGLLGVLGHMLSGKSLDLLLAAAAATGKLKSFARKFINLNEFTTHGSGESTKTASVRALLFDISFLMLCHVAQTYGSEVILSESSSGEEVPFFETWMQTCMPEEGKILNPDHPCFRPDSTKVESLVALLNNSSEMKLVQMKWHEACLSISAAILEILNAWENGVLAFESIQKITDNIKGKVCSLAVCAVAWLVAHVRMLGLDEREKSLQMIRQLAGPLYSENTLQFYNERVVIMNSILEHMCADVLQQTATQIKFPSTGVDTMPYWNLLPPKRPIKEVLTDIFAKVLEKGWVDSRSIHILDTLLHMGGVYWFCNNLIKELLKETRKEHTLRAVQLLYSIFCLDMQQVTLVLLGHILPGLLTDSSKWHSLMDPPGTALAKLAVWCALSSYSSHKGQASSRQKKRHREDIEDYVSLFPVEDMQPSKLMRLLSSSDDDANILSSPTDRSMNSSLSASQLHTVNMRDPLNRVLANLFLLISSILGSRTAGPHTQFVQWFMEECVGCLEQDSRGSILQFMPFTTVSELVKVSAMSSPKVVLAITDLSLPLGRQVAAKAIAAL

T3: MED17 (mouse (Mus musculus; endogenous in CH12), UniProt Q8VCD5 1-649)
T3 construct: MED17, Mus musculus, endogenous Head module scaffold subunit of Mediator; source: endogenous, CH12 mouse B lymphoma nuclear extract; immunopurified as part of Mediator (FLAG M2 agarose, FLAG peptide elution)
T3 sequence (looked up): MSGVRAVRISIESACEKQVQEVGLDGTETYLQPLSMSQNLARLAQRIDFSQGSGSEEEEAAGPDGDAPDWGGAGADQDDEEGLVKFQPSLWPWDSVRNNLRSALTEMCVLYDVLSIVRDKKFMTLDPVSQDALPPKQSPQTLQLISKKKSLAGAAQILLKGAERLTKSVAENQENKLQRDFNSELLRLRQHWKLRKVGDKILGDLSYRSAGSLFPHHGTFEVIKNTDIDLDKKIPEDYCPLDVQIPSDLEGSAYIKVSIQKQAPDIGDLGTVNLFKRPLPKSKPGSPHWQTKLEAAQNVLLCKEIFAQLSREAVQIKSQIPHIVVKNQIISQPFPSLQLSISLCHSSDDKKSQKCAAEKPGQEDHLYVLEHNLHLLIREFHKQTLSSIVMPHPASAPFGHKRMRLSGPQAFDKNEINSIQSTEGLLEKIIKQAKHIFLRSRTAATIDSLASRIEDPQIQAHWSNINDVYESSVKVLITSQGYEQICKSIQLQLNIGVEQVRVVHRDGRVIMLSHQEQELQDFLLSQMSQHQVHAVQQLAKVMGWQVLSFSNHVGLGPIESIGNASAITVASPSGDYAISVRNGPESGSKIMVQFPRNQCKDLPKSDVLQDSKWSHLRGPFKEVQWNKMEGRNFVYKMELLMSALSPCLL

T4: MED27 (mouse (Mus musculus; endogenous in CH12), UniProt Q9DB40 1-311)
T4 construct: MED27, Mus musculus, endogenous upper Tail subunit of Mediator; source: endogenous, CH12 mouse B lymphoma nuclear extract; immunopurified as part of Mediator (FLAG M2 agarose, FLAG peptide elution)
T4 sequence (looked up): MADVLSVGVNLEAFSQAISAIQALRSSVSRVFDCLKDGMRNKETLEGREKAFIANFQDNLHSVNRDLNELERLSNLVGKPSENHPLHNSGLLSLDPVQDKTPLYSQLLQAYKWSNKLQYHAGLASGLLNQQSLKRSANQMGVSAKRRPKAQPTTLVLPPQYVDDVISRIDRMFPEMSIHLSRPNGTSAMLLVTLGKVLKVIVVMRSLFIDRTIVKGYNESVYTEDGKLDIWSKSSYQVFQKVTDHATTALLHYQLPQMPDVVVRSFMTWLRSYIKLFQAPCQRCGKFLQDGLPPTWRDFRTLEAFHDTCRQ


Experiments:
Experiment in all cases: cryo-EM structure; endogenous mouse Mediator immunopurified from CH12 nuclear extract through 3×FLAG-MED19 or 3×FLAG-MED25; eluted in 50 mM HEPES pH 7.9, 100 mM KCl, 5% glycerol, 1 mM EDTA, 0.005% NP-40; map at 4.0 Å overall, focused refinement of the MED1 and knob/hook ends (6-10 Å)
Details in all cases: both partners purified
MED23 = target: T1, MED23
MED24 = target: T2, MED24
MED17 = target: T3, MED17
MED27 = target: T4, MED27

binding result (MED23) | binding result (MED24) | binding result (MED17) | binding result (MED27) | Binder
binds | binds | – | – | MED16 (natural protein, mouse (Mus musculus; endogenous in CH12), UniProt Q6PGF3 1-828, looked up, MED16, Mus musculus, endogenous lower Tail subunit of Mediator; source: endogenous, CH12 mouse B lymphoma nuclear extract; immunopurified as part of Mediator (FLAG M2 agarose, FLAG peptide elution)) MDLAYVCEWEKWAKSTYCPSLPLACAWSCRNLIAFTTDLRNDDQDLTHMIHILDTEHPWEVHSVSSGHSEAITCLEWDQSGSRLLSADADGQIKCWSMADHLANSWESSVGSQVEGDPIVALSWLHNGVKLALHVEKSGASSFGEKFSRVKFSPSLTLFGGKPMEGWIAVTVSGLVTVSLLKPSGQVLTSTESLCRLRGRVALADIAFTGGGNIVVAAADGSSASPVKFYKVCVSVVSEKCRIDTEILPSLFMRCTTDPNRKDRFPAITHLKFLARDMSEQVLLCASSQTSSLVECWSLRKEGLPVNNIFQQISPVVGDKQPMILKWRILSATNDLDRVSAVALPKLPISLTNTDLKVASDTQFYPGLGLALAFQDGSVHMVHRLSLQTMAVFYSSAPRSLDEPALKRPRTTCPAVHFKAMQLSWTSLALVGIDNHGKLSMLRISPSLGHPLEPKLALQHLLFLLEYCMVTGYDWWDILLHVQPGMVQSLVERLHEEYTRQKPALQQVLSTRILAMKASLCKLSPCTVARVCDYHTKLFLMAITSTLKSLLRPHFLNTPDKSPGDRLAEICAKITDVDIDKVMINLKTEEFVLDMNTLQALQQLLQWVGDFVLYLLVSLPNQGSPLRPGHSFLRDGTSLGMLRELMVVIRIWGLLKPSCLPVYTATSDTQDSMSLLFRLLTKLWICCRDEGAASEPDEGLVDECCLLPSQLLVPNLDWLPASDGLVSRLQPKQPLRLRFGRAPTLPSSTSTLQLDGLTRAPGQPKIDHLRRLHLGAYPTEECKACTRCGCVTMLKSPNKTTAVTQWEQRWIKNCLCGGLWRRVPLSCS
– | – | binds | binds | MED20 (natural protein, mouse (Mus musculus; endogenous in CH12), UniProt Q9R0X0 1-212, looked up, MED20, Mus musculus, endogenous Head module subunit of Mediator; source: endogenous, CH12 mouse B lymphoma nuclear extract; immunopurified as part of Mediator (FLAG M2 agarose, FLAG peptide elution)) MGVTCVSQMPVAEGKSLQQTVELLTKKLEMLGAEKQGTFCVDCETYHTAASTLGSQGQAGKLMYVMHNSEYPLSCFALFENGPCLIADTNFDVLMVKLKGFFQSAKASKIETRGTRYQYCDFLVKVGTVTMGPSARGISVEVEYGPCVVASDCWSLLLEFLQSFLGSHAPGAPTVFGNRHDAVYGPADTMIQYMELFNKIRKQQQVPVAGIR
– | – | binds | – | MED22 (natural protein, mouse (Mus musculus; endogenous in CH12), UniProt Q62276 1-200, looked up, MED22, Mus musculus, endogenous Head module subunit of Mediator; source: endogenous, CH12 mouse B lymphoma nuclear extract; immunopurified as part of Mediator (FLAG M2 agarose, FLAG peptide elution)) MAQQRALPQSKETLLQSYNKRLKDDIKSIMDNFTEIIKTAKIEDETQVSRATQGEQDNYEMHVRAANIVRAGESLMKLVSDLKQFLILNDFPSVNEAIDQRNQQLRALQEECDRKLITLRDEVSIDLYELEEEYYSSSSSLCEANDLPLCEAYWRLDLDADSADGLSAPLLASPETGAGPLQSAAPVHSHGGGPGPTEHT
